Biological target: the molecule itself
Experiment: AUC

B1: Y137C COA7 pathogenic variant, recombinant, GST-free (natural protein, human)
chain: GPLGSMAGMVDFQDEEQVKSFLENMEVECNYHCYHEKDPDGCYRLVDYLEGIRKNFDEAAKVLKFNCEENQHSDSCYKLGAYYVTGKGGLTQDLKAAARCFLMACEKPGKKSIAACHNVGLLAHDGQVNEDGQPDLGKARDCYTRACDGGYTSSCFNLSAMFLQGAPGFPKDMDLACKYSMKACDLGHIWACANASRMYKLGDGVDKDEAKAEVLKNRAQQLHKEQQKGVQPLTFG
B1: binds.

B2: Cytochrome c oxidase assembly factor 7 (COA7), recombinant, GST-free (natural protein, human)
chain: GPLGSMAGMVDFQDEEQVKSFLENMEVECNYHCYHEKDPDGCYRLVDYLEGIRKNFDEAAKVLKFNCEENQHSDSCYKLGAYYVTGKGGLTQDLKAAARCFLMACEKPGKKSIAACHNVGLLAHDGQVNEDGQPDLGKARDYYTRACDGGYTSSCFNLSAMFLQGAPGFPKDMDLACKYSMKACDLGHIWACANASRMYKLGDGVDKDEAKAEVLKNRAQQLHKEQQKGVQPLTFG
In the case of B2, the “stoichiometry N” value is reported as 2.

Source: article doi:10.1101/2021.06.10.447992 (bioRxiv, 2021)
